In EP4818205A1 (Beijing Wisdomab Biotechnology Co., Ltd, dated 2026):
Read-outs that look alike come from different tables or passages of the source.

T1: recombinant protein His-fib-hTL1A (human)
T1 chain: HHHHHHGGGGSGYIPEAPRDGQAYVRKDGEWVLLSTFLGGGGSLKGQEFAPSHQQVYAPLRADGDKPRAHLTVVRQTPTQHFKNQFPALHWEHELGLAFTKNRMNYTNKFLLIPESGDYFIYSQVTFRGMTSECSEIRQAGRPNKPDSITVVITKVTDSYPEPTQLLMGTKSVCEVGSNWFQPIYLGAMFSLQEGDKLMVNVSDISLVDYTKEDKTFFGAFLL

T2: recombinant protein His-fib-mfTL1A (Macaca fascicularis)
T2 construct: also called monkey TL1A; Macaca fascicularis TL1A
T2 chain: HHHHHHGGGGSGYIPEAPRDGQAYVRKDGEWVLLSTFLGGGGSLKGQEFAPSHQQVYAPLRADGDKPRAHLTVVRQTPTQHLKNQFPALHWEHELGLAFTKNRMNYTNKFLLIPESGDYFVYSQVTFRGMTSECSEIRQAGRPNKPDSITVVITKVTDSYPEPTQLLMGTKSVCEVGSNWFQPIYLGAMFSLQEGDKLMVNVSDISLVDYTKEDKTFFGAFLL

T3: recombinant protein His-fib-mTL1A (mouse)
T3 construct: also called mouse TL1A
T3 chain: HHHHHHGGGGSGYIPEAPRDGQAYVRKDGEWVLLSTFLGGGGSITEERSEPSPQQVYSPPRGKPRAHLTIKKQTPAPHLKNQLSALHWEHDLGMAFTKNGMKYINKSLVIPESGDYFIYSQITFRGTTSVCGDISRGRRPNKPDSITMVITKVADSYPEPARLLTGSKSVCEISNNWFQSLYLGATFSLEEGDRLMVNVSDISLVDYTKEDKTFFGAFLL

T4: recombinant protein His-fib-rTL1A (rat)
T4 construct: also called rat TL1A
T4 chain: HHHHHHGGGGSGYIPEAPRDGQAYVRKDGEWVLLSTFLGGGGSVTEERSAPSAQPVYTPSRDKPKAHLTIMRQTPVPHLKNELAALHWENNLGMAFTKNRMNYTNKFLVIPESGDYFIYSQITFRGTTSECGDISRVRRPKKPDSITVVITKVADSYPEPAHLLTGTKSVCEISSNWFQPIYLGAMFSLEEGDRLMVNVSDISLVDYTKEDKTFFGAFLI

B1: anti-TL1A monoclonal antibody PRA023 (antibody, V domains shown)
VH: QVQLVQSGAEVKKPGASVKVSCKASGFDIQDTYMHWVKQRPGQGLEWMGRIDPASGHTKYDPKFQVRVTITRDTSTSTVYLELSSLRSEDTAVYYCARSGGLPDVWGQGTTVTVSS
VL: EIVLTQSPGTLSLSPGERATLSCRASSSVSYMYWYQQKPGQAPRPLIYATSNLASGIPDRFSGSGSGTDFTLTISRLEPEDFAVYYCQQWEGNPRTFGGGTKLEIK
B2: mouse anti-TL1A monoclonal antibody S9H9 (antibody, V domains shown)
VH: QVQLKQSGAELVRPGTSVKISCKASGYAFTNYWLGWIKQRPGHGLEWIGDIHPGRGNIFYNEKFKGKATLTADKSSSTAYMQLSSLTSEDSAVYFCAEGYDTFDYWGQGTTLTVSA
VL: DIVMTQSHKFMSTSVGDRVSITCKASQDVSTAVAWYQQKPGQSPKLLIYSASYRYTGVPDRFTGSGSGTDFTFTISSVQAEDLAVYYCQQHYSTPWTFGGGTKLEMKR
B3: mouse anti-TL1A monoclonal antibody S7B11 (antibody, V domains shown)
VH: QVKLQQSGGELVRPGTSVKISCKASGYAFTNYWLGWIKQRPGHGLEWIGDIHPGRGNIYYNEKFKGKATLTADKSSSTAYMQLSSLTSEDSAVYFCAEGYDTFDYWGQGTTLTVSS
VL: DIVMTQSPSYLAASPGETITINCRASKSISKYLAWYQEKPGKTNKLLIYSGSTLQSGIPSRFSGSGSGTDFTLTISSLEPEDFAMYYCQQHNEYPYTFGGGTKLEIKR
B4: mouse anti-TL1A monoclonal antibody S4D3 (antibody, V domains shown)
VH: QVQLKESGSDLATPGASVKLSCKVSGYTFTKYDINWVRQRPEQGLEWIGWIFPGDGRTDYNEKFKGKATLTIDTSSSTAYMQLSRLTSEDSAVYFCARYGYALDYWGQGTSVTVSS
VL: DVVMTQTPLSLPVSLGDQASISCRSSQNIVHSNGDTYLEWFLQKPGQSPKLLIYKVSNRFSGVPDRFSGSGSGTDFTLKISRVEAEDLGVYYCFQGSHFPYTFGGGTKLEMKR
B5: anti-TL1A monoclonal antibody RVT-3101 (antibody, V domains shown)
VH: QVQLVQSGAEVKKPGASVKVSCKASGYDFTYYGISWVRQAPGQGLEWMGWISTYNGNTHYARMLQGRVTMTTDTSTRTAYMELRSLRSDDTAVYYCARENYYGSGAYRGGMDVWGQGTTVTVSS
VL: EIVLTQSPATLSLSPGERATLSCRASQSVSSYLAWYQQKPGQAPRLLIYDASNRATGIPARFSGSGSGTDFTLTISSLEPEDFAVYYCQQRSNWPWTFGQGTKVEIK

What was measured:
[1] = molecular target: T1, recombinant protein His-fib-hTL1A; experiment: cell-based or functional assay
[2] = molecular target: T2, recombinant protein His-fib-mfTL1A; experiment: SPR, Biacore T200; antibody captured by anti-human IgG (Fc), TL1A as analyte; 1:1 model
[3] = molecular target: T1, recombinant protein His-fib-hTL1A; experiment: cell-based or functional assay
[4] = molecular target: T3, recombinant protein His-fib-mTL1A; experiment: SPR, Biacore T200; antibody captured by anti-human IgG (Fc), TL1A as analyte
[5] = molecular target: T2, recombinant protein His-fib-mfTL1A; experiment: SPR, Biacore T200; antibody captured by anti-human IgG (Fc), TL1A as analyte; 1:1 model
[6] = molecular target: T1, recombinant protein His-fib-hTL1A; experiment: as above
[7] = molecular target: T1, recombinant protein His-fib-hTL1A; experiment: cell-based or functional assay
[8] = molecular target: T1, recombinant protein His-fib-hTL1A; experiment: SPR, Biacore T200; antibody captured by anti-human IgG (Fc), TL1A as analyte; 1:1 model
[9] = molecular target: T4, recombinant protein His-fib-rTL1A; experiment: SPR, Biacore T200; antibody captured by anti-human IgG (Fc), TL1A as analyte
[10] = molecular target: T3, recombinant protein His-fib-mTL1A; experiment: SPR, Biacore T200; antibody captured by anti-human IgG (Fc), TL1A as analyte; 1:1 model
[11] = molecular target: T1, recombinant protein His-fib-hTL1A; experiment: cell-based or functional assay
[12] = molecular target: T1, recombinant protein His-fib-hTL1A; experiment: cell-based or functional assay
[13] = molecular target: T3, recombinant protein His-fib-mTL1A; experiment: SPR, Biacore T200; antibody captured by anti-human IgG (Fc), TL1A as analyte; 1:1 model
[14] = molecular target: T4, recombinant protein His-fib-rTL1A; experiment: as above

Row | Binder | IC50 of inhibition of interferon-gamma secretion by TL1A-stimulated PBMCs [1] [nM] | Kd [2] [nM] | koff [2] [s⁻¹] | kon [2] [M⁻¹ s⁻¹] | IC50 of inhibition of caspase activation in TL1A-stimulated TF-1 cells [3] [nM] | binding result [4] | Kd [5] [nM] | koff [5] [s⁻¹] | kon [5] [M⁻¹ s⁻¹] | Kd [6] [nM] | koff [6] [s⁻¹] | kon [6] [M⁻¹ s⁻¹] | Kd [8] [nM] | koff [8] [s⁻¹] | kon [8] [M⁻¹ s⁻¹] | Kd [10] [nM] | koff [10] [s⁻¹] | kon [10] [M⁻¹ s⁻¹] | IC50 of inhibition of NF-kB activation in TL1A-stimulated 293T-hDR3-NF-kB-RE-luci cells [11] [nM] | IC50 of inhibition of caspase-3/7 activation in TL1A-stimulated TF-1 cells [12] [nM] | further results
1 | B1 | 6.54 | 0.0802 | 9.01e-05 | 1.12e+06 | 6.52 | no binding | 0.0802 | 9.01e-05 | 1.12e+06 | 0.355 | 0.000169 | 476000 | 0.355 | 0.000169 | 476000 | – | – | – | – | – | IC50 of inhibition of NF-kB activation in TL1A-stimulated 293T-hDR3-NF-kB-RE-luci cells [7]: 2.81 nM; binding result [9]: no binding
2 | B2 | – | – | – | – | – | – | 0.0603 | 0.000175 | 2.9e+06 | – | – | – | 0.0374 | 0.000501 | 1.34e+07 | 37.2 | 0.00255 | 68600 | 1.28 | 2.69 | –
3 | B3 | – | – | – | – | – | – | 0.052 | 6.93e-05 | 1.32e+06 | – | – | – | 0.234 | 0.00011 | 470000 | 53.5 | 0.00366 | 68300 | 1.35 | 2.69 | –
4 | B4 | – | – | – | – | – | no binding | 0.0489 | 6.31e-05 | 1.29e+06 | – | – | – | 0.247 | 0.000131 | 532000 | – | – | – | 1.13 | 3.05 | –
5 | B5 | 13.6 | 0.05 | 6.7e-05 | 1.34e+06 | 3.46 | – | 0.0275 | 4.51e-05 | 1.64e+06 | 0.144 | 0.000102 | 706000 | 0.154 | 0.0001 | 652000 | 0.0482 | 4.36e-05 | 904000 | 1.28 | 3.13 | IC50 of inhibition of NF-kB activation in TL1A-stimulated 293T-hDR3-NF-kB-RE-luci cells [7]: 1.08 nM; Kd [13]: 0.0775 nM; koff [13]: 5.92e-05 s⁻¹; kon [13]: 764000 M⁻¹ s⁻¹; Kd [14]: 0.434 nM; koff [14]: 0.000424 s⁻¹; kon [14]: 978000 M⁻¹ s⁻¹
